Measurements taken from the supplement of paper PMC12458215.
± gives the uncertainty stated by the source.

Tested on: HEK293T
Assay: plasma membrane surface immunostaining intensity (anti-HA, deep receptor scanning) (arbitrary fluorescence units); higher = higher plasma membrane expression

Row | Sequence | plasma membrane surface immunostaining intensity (GPCR class: A) | also measured
1 | MTFRDLLSVSFEGPRPDSSAGGSSAGGGGGSAGGAAPSEGPAVGGVPGGAGGGGGVVGAGSGEDNRSSAGEPGSAGAGGDVNGTAAVGGLVVSAQGVGVGVFLAAFILMAVAGNLLVILSVACNRHLQTVTNYFIVNLAVADLLLSATVLPFSATMEVLGFWAFGRAFCDVWAAVDVLCCTASILSLCTISVDRYVGVRHSLKYPAIMTERKAAAILALLWVVALVVSVGPLLGWKEPVPPDERFCGITEEAGYAVFSSVCSFYLPMAVIVVMYCRVYVVARSTTRSLEAGVKRERGKASEVVLRIHCRGAATGADGAHGMRSAKGHTFRSSLSVRLLKFSREKKAAKTLAIVVGVFVLCWFPFFFVLPLGSLFPQLKPSEGVFKVIFWLGYFNSCVNPLIYPCSSREFKRAFLRLLRCQCRRRRRRRPLWRVYGHHWRASTSGLRQDCAPSSGDAPPGAPLALTALPDPDPEPPGTPEMQAPVASRRKPPSAFREWRLLGPFRRPTTQLRAKVSSLSHKIRAGGAQRAEAACAQRSEVEAVSLGVPHEVAEGATCQAYELADYSNLRETDI [ADRA1D] | 125 ± 25 | –
2 | MTILLNSSLQRATFFLTGFQGLEGLHGWISIPFCFIYLTVILGNLTILHVICTDATLHGPMYYFLGMLAVTDLGLCLSTLPTVLGIFWFDTREIGIPACFTQLFFIHTLSSMESSVLLSMSIDRYVAVCNPLHDSTVLTPACIVKMGLSSVLRSALLILPLPFLLKRFQYCHSHVLAHAYCLHLEIMKLACSSIIVNHIYGLFVVACTVGVDSLLIFLSYALILRTVLSIASHQERLRALNTCVSHICAVLLFYIPMIGLSLVHRFGEHLPRVVHLFMSYVYLLVPPLMNPIIYSIKTKQIRQRIIKKFQFIKSLRCFWKD [OR51G1] | – | plasma membrane surface immunostaining intensity (GPCR class: A (Olfactory)): 116 ± 20
3 | MTNQTQMMEFLLVRFTENWVLLRLHALLFSLIYLTAVLMNLVIILLMILDHRLHMAMYFFLRHLSFLDLCLISATVPKSILNSVASTDSISFLGCVLQLFLVVLLAGSEIGILTAMSYDRYAAICCPLHCEAVMSRGLCVQLMALSWLNRGALGLLYTAGTFSLNFYGSDELHQFFCDVPALLKLTCSKEHAIISVSVAIGVCYAFSCLVCIVVSYVYIFSAVLRISQRQRQSKAFSNCVPHLIVVTVFLVTGAVAYLKPGSDAPSILDLLVSVFYSVAPPTLNPVIYCLKNKDIKSALSKVLWNVRSSGVMKR [OR14K1] | – | plasma membrane surface immunostaining intensity (GPCR class: A (Olfactory)): 155 ± 35
4 | MTNSSFFCPVYKDLEPFTYFFYLVFLVGIIGSCFATWAFIQKNTNHRCVSIYLINLLTADFLLTLALPVKIVVDLGVAPWKLKIFHCQVTACLIYINMYLSIIFLAFVSIDRCLQLTHSCKIYRIQEPGFAKMISTVVWLMVLLIMVPNMMIPIKDIKEKSNVGCMEFKKEFGRNWHLLTNFICVAIFLNFSAIILISNCLVIRQLYRNKDNENYPNVKKALINILLVTTGYIICFVPYHIVRIPYTLSQTEVITDCSTRISLFKAKEATLLLAVSNLCFDPILYYHLSKAFRSKVTETFASPKETKAQKEKLRCENNA [GPR171] | 455 ± 49 | –
5 | MTPLCLNCSVLPGDLYPGGARNPMACNGSAARGHFDPEDLNLTDEALRLKYLGPQQTELFMPICATYLLIFVVGAVGNGLTCLVILRHKAMRTPTNYYLFSLAVSDLLVLLVGLPLELYEMWHNYPFLLGVGGCYFRTLLFEMVCLASVLNVTALSVERYVAVVHPLQARSMVTRAHVRRVLGAVWGLAMLCSLPNTSLHGIRQLHVPCRGPVPDSAVCMLVRPRALYNMVVQTTALLFFCLPMAIMSVLYLLIGLRLRRERLLLMQEAKGRGSAAARSRYTCRLQQHDRGRRQVTKMLFVLVVVFGICWAPFHADRVMWSVVSQWTDGLHLAFQHVHVISGIFFYLGSAANPVLYSLMSSRFRETFQEALCLGACCHRLRPRHSSHSLSRMTTGSTLCDVGSLGSWVHPLAGNDGPEAQQETDPS [NMUR1] | 2770 ± 700 | –
6 | MTPNSTGEVPSPIPKGALGLSLALASLIITANLLLALGIAWDRRLRSPPAGCFFLSLLLAGLLTGLALPTLPGLWNQSRRGYWSCLLVYLAPNFSFLSLLANLLLVHGERYMAVLRPLQPPGSIRLALLLTWAGPLLFASLPALGWNHWTPGANCSSQAIFPAPYLYLEVYGLLLPAVGAAAFLSVRVLATAHRQLQDICRLERAVCRDEPSALARALTWRQARAQAGAMLLFGLCWGPYVATLLLSVLAYEQRPPLGPGTLLSLLSLGSASAAAVPVAMGLGDQRYTAPWRAAAQRCLQGLWGRASRDSPGPSIAYHPSSQSSVDLDLN [GPBAR1] | 5940 ± 84 | –
7 | MTPTDFTSPIPNMADDYGSESTSSMEDYVNFNFTDFYCEKNNVRQFASHFLPPLYWLVFIVGALGNSLVILVYWYCTRVKTMTDMFLLNLAIADLLFLVTLPFWAIAAADQWKFQTFMCKVVNSMYKMNFYSCVLLIMCISVDRYIAIAQAMRAHTWREKRLLYSKMVCFTIWVLAAALCIPEILYSQIKEESGIAICTMVYPSDESTKLKSAVLTLKVILGFFLPFVVMACCYTIIIHTLIQAKKSSKHKALKVTITVLTVFVLSQFPYNCILLVQTIDAYAMFISNCAVSTNIDICFQVTQTIAFFHSCLNPVLYVFVGERFRRDLVKTLKNLGCISQAQWVSFTRREGSLKLSSMLLETTSGALSL [CCR9] | 4060 ± 290 | –
8 | MTRKNYTSLTEFVLLGLADTLELQIILFLFFLVIYTLTVLGNLGMILLIRIDSQLHTPMYFFLANLSFVDVCNSTTITPKMLADLLSEKKTISFAGCFLQMYFFISLATTECILFGLMAYDRYAAICRPLLYSLIMSRTVYLKMAAGAFAAGLLNFMVNTSHVSSLSFCDSNVIHHFFCDSPPLFKLSCSDTILKESISSILAGVNIVGTLLVILSSYSYVLFSIFSMHSGEGRHRAFSTCASHLTAIILFYATCIYTYLRPSSSYSLNQDKVASVFYTVVIPMLNPLIYSLRSKEVKKALANVISRKRTSSFL [OR5F1] | – | plasma membrane surface immunostaining intensity (GPCR class: A (Olfactory)): 192 ± 87
9 | MTSGSVFFYILIFGKYFSHGGGQDVKCSLGYFPCGNITKCLPQLLHCNGVDDCGNQADEDNCGDNNGWSLQFDKYFASYYKMTSQYPFEAETPECLVGSVPVQCLCQGLELDCDETNLRAVPSVSSNVTAMSLQWNLIRKLPPDCFKNYHDLQKLYLQNNKITSISIYAFRGLNSLTKLYLSHNRITFLKPGVFEDLHRLEWLIIEDNHLSRISPPTFYGLNSLILLVLMNNVLTRLPDKPLCQHMPRLHWLDLEGNHIHNLRNLTFISCSNLTVLVMRKNKINHLNENTFAPLQKLDELDLGSNKIENLPPLIFKDLKELSQLNLSYNPIQKIQANQFDYLVKLKSLSLEGIEISNIQQRMFRPLMNLSHIYFKKFQYCGYAPHVRSCKPNTDGISSLENLLASIIQRVFVWVVSAVTCFGNIFVICMRPYIRSENKLYAMSIISLCCADCLMGIYLFVIGGFDLKFRGEYNKHAQLWMESTHCQLVGSLAILSTEVSVLLLTFLTLEKYICIVYPFRCVRPGKCRTITVLILIWITGFIVAFIPLSNKEFFKNYYGTNGVCFPLHSEDTESIGAQIYSVAIFLGINLAAFIIIVFSYGSMFYSVHQSAITATEIRNQVKKEMILAKRFFFIVFTDALCWIPIFVVKFLSLLQVEIPGTITSWVVIFILPINSALNPILYTLTTRPFKEMIHRFWYNYRQRKSMDSKGQKTYAPSFIWVEMWPLQEMPPELMKPDLFTYPCEMSLISQSTRLNSYS [RXFP1] | 165 ± 19 | –
10 | MTSNFSQPVVQLCYEDVNGSCIETPYSPGSRVILYTAFSFGSLLAVFGNLLVMTSVLHFKQLHSPTNFLIASLACADFLVGVTVMLFSMVRTVESCWYFGAKFCTLHSCCDVAFCYSSVLHLCFICIDRYIVVTDPLVYATKFTVSVSGICISVSWILPLTYSGAVFYTGVNDDGLEELVSALNCVGGCQIIVSQGWVLIDFLLFFIPTLVMIILYSKIFLIAKQQAIKIETTSSKVESSSESYKIRVAKRERKAAKTLGVTVLAFVISWLPYTVDILIDAFMGFLTPAYIYEICCWSAYYNSAMNPLIYALFYPWFRKAIKLILSGDVLKASSSTISLFLE [TAAR8] | 352 ± 170 | –
11 | MTSTCTNSTRESNSSHTCMPLSKMPISLAHGIIRSTVLVIFLAASFVGNIVLALVLQRKPQLLQVTNRFIFNLLVTDLLQISLVAPWVVATSVPLFWPLNSHFCTALVSLTHLFAFASVNTIVVVSVDRYLSIIHPLSYPSKMTQRRGYLLLYGTWIVAILQSTPPLYGWGQAAFDERNALCSMIWGASPSYTILSVVSFIVIPLIVMIACYSVVFCAARRQHALLYNVKRHSLEVRVKDCVENEDEEGAEKKEEFQDESEFRRQHEGEVKAKEGRMEAKDGSLKAKEGSTGTSESSVEARGSEEVRESSTVASDGSMEGKEGSTKVEENSMKADKGRTEVNQCSIDLGEDDMEFGEDDINFSEDDVEAVNIPESLPPSRRNSNSNPPLPRCYQCKAAKVIFIIIFSYVLSLGPYCFLAVLAVWVDVETQVPQWVITIIIWLFFLQCCIHPYVYGYMHKTIKKEIQDMLKKFFCKEKPPKEDSHPDLPGTEGGTEGKIVPSYDSATFP [GPR101] | 3010 ± 110 | –
12 | MTTSLDTVETFGTTSYYDDVGLLCEKADTRALMAQFVPPLYSLVFTVGLLGNVVVVMILIKYRRLRIMTNIYLLNLAISDLLFLVTLPFWIHYVRGHNWVFGHGMCKLLSGFYHTGLYSEIFFIILLTIDRYLAIVHAVFALRARTVTFGVITSIVTWGLAVLAALPEFIFYETEELFEETLCSALYPEDTVYSWRHFHTLRMTIFCLVLPLLVMAICYTGIIKTLLRCPSKKKYKAIRLIFVIMAVFFIFWTPYNVAILLSSYQSILFGNDCERSKHLDLVMLVTEVIAYSHCCMNPVIYAFVGERFRKYLRHFFHRHLLMHLGRYIPFLPSEKLERTSSVSPSTAEPELSIVF [CCR3] | 391 ± 99 | –
13 | MTTSPILQLLLRLSLCGLLLQRAETGSKGQTAGELYQRWERYRRECQETLAAAEPPSGLACNGSFDMYVCWDYAAPNATARASCPWYLPWHHHVAAGFVLRQCGSDGQWGLWRDHTQCENPEKNEAFLDQRLILERLQVMYTVGYSLSLATLLLALLILSLFRRLHCTRNYIHINLFTSFMLRAAAILSRDRLLPRPGPYLGDQALALWNQALAACRTAQIVTQYCVGANYTWLLVEGVYLHSLLVLVGGSEEGHFRYYLLLGWGAPALFVIPWVIVRYLYENTQCWERNEVKAIWWIIRTPILMTILINFLIFIRILGILLSKLRTRQMRCRDYRLRLARSTLTLVPLLGVHEVVFAPVTEEQARGALRFAKLGFEIFLSSFQGFLVSVLYCFINKEVQSEIRRGWHHCRLRRSLGEEQRQLPERAFRALPSGSGPGEVPTSRGLSSGTLPGPGNEASRELESYC [GIPR] | – | plasma membrane surface immunostaining intensity (GPCR class: B): 6435 ± 30
14 | MVFLSGNASDSSNCTQPPAPVNISKAILLGVILGGLILFGVLGNILVILSVACHRHLHSVTHYYIVNLAVADLLLTSTVLPFSAIFEVLGYWAFGRVFCNIWAAVDVLCCTASIMGLCIISIDRYIGVSYPLRYPTIVTQRRGLMALLCVWALSLVISIGPLFGWRQPAPEDETICQINEEPGYVLFSALGSFYLPLAIILVMYCRVYVVAKRESRGLKSGLKTDKSDSEQVTLRIHRKNAPAGGSGMASAKTKTHFSVRLLKFSREKKAAKTLGIVVGCFVLCWLPFFLVMPIGSFFPDFKPSETVFKIVFWLGYLNSCINPIIYPCSSQEFKKAFQNVLRIQCLCRKQSSKHALGYTLHPPSQAVEGQHKDMVRIPVGSRETFYRISKTDGVCEWKFFSSMPRGSARITVSKDQSSCTTARVRSKSFLQVCCCVGPSTPSLDKNHQVPTIKVHTISLSENGEEV [ADRA1A] | 2110 ± 600 | –
15 | MVGDTLKLLSPLMTRYFFLLFYSTDSSDLNENQHPLDFDEMAFGKVKSGISFLIQTGVGILGNSFLLCFYNLILFTGHKLRPTDLILSQLALANSMVLFFKGIPQTMAAFGLKYLLNDTGCKFVFYYHRVGTRVSLSTICLLNGFQAIKLNPSICRWMEIKIRSPRFIDFCCLLCWAPHVLMNASVLLLVNGPLNSKNSSAKNNYGYCSYKASKRFSSLHAVLYFSPDFMSLGFMVWASGSMVFFLYRHKQQVQHNHSNRLSCRPSQEARATHTIMVLVSSFFVFYSVHSFLTIWTTVVANPGQWIVTNSVLVASCFPARSPFVLIMSDTHISQFCFACRTRKTLFPNLVVMP [VN1R1] | – | plasma membrane surface immunostaining intensity (GPCR class: Vomeronasal): 140 ± 8.3
